{
  "source": "patent US20180037620",
  "test_in_all_cases": "cell_activity",
  "settings_in_all_cases": "79/528 porcine fibroblast clones; both TALEN pairs (5-2 and 3-2) plus HR oligo used together",
  "key": {"TALEN ETV2 3-2 Right": {"test_system": "TALEN ETV2 3-2 Right"}, "TALEN ETV2 3-2 Left": {"test_system": "TALEN ETV2 3-2 Left"}, "TALEN ETV2 5-2 Right": {"test_system": "TALEN ETV2 5-2 Right"}, "TALEN ETV2 5-2 Left": {"test_system": "TALEN ETV2 5-2 Left"}},
  "data": [
    {"sequence": "CCCCTAAGGGTCCTG (double strand) [ETV2 3-2 right half-site]", "values": [
      {"measurement": "activity (% of clones homozygous for deletion)", "setting": "TALEN ETV2 3-2 Right", "value": 15}
    ]},
    {"sequence": "GATCCCAAGTCACACC (double strand) [ETV2 3-2 left half-site]", "values": [
      {"measurement": "activity (% of clones homozygous for deletion)", "setting": "TALEN ETV2 3-2 Left", "value": 15}
    ]},
    {"sequence": "GGGCTGCACCAGGCT (double strand) [ETV2 5-2 right half-site]", "values": [
      {"measurement": "activity (% of clones homozygous for deletion)", "setting": "TALEN ETV2 5-2 Right", "value": 15}
    ]},
    {"sequence": "CTGGCCGGAAATCCCC (double strand) [ETV2 5-2 left half-site]", "values": [
      {"measurement": "activity (% of clones homozygous for deletion)", "setting": "TALEN ETV2 5-2 Left", "value": 15}
    ]}
  ]
}
